Reference: US20090104657A1 (BASF AKTIENGESELLSCHAFT, published 2009)

Biological target: the molecule itself
Assay: native polyacrylamide gel electrophoresis; self-association of the subunit

B1: protease according to the invention from Burkholderia glumae PG1, expressed from pETpro in E. coli BL21DE3 as a fusion protein with C-terminal 6xHis-tag (enzyme)
chain: MQQRGGSMSKKIAVLAVDEFEDSELVEPLRALRKAGAEVDVISQQAGEVKGFRHADKGEAVKVDRTFDEVREGEFDALLLPGGLLRGDNRMLPAAREFVTAGKPVFAICHGGWLLGSSGVINGRKLTAWPSLQDDVKNAGGEFYDQEVVRDKDQLITSRKPDDLPAFNREALRLLGAGA
notes: also called putative protease; ThiJ/PfpI protein; not shown: C-terminal 6xHis-tag from vector pET22b
  binding result: binds
